The values below come from patent publication US11787839B2, “Targeting α2δ-1-bound glutamate receptors for treating diseases and disorders” (Board of Regents, The University of Texas System, priority 2017, dated 2023).

Assay [1] has as its target T1, GluN1 and α2δ-1 in hypothalamic synaptosomes (Rattus norvegicus, UniProt P35439+Q00959+Q00960).
T1 construct: from tissue; host or cells: rat hypothalamic slices containing the PVN (Sprague-Dawley, WKY, SHR) and synaptosomes made from them
Nature of the assay: Protein level analysis in hypothalamic synaptosomes (Ang II). In kind it is cell-based. How it is done: Protein level analysis in hypothalamic synaptosomes: The hypothalamic tissues containing the PVN (pooled from 2 rats per sample) were homogenized using 10 volumes of ice-cold HEPES-buffered sucrose (0.32 mol/L sucrose, 1 mmol/L EGTA, and 4 mmol/L HEPES at pH 7.4) containing the protease inhibitor cocktail (Sigma-Aldrich). The homogenate was centrifuged at 2,000×g for 10 min at 4° C. to remove the nuclei and large debris. The supernatant was centrifuged at 20,000×g for 30 min to obtain the crude synaptosomal fraction. The synaptosomal pellet was lysed via hypo-osmotic shock in 9 volumes of ice-cold HEPES-buffer with the protease inhibitor cocktail for 30 min. The lysate was centrifuged at 25,000×g for 45 min at 4° C. to obtain the synaptosomal membrane fraction (Chen et al., 2018), which was then dissolved in sodium dodecyl sulfate sample buffer at a final concentration of 0.25 μg/μl for immunoblotting.
Western blotting was used to quantify GluN1 and α2δ-1 protein levels in the hypothalamic synaptosome. Fifteen micrograms of total proteins from each sample was loaded and separated by 4-15% Tris-HCl sodium dodecyl sulfate-polyacrylamide gel electrophoresis (#456-1086, Bio-Rad, Hercules, Calif.). The resolved proteins were transferred to a polyvinylidene difluoride membrane (Millipore). The membrane was treated with 5% nonfat dry milk in Tris-buffered saline (TBS) at 25° C. for 1 h and then incubated in TBS supplemented with 0.1% Triton X-100, 1% bovine serum albumin, and rabbit anti-GluN1 (#G8913, 1:100; Sigma, RRID: AB_259978), rabbit anti-α2δ-1 (#ACC-015, 1:500, Alomone, Jerusalem, Israel, RRID: AB_2039785), and mouse anti-PSD-95 (#75-348, 1:1,000, NeuroMab, Davis, Calif., RRID: AB_2315909) antibodies overnight at 4° C. The membrane was washed 3 times and then incubated with horseradish peroxidase-conjugated anti-rabbit IgG (1:5,000; Jackson ImmunoResearch, West Grove, Pa.) for 1 h at room temperature. The protein bands were detected with an enhanced chemiluminescence kit (Thermo Fisher Scientific, Waltham, Mass.), and protein band intensity was visualized and quantified using an Odyssey Fc Imager (LI-COR Biosciences, Lincoln, Nebr.). The protein levels of GluN1 and α2δ-1 were normalized by the PSD-95 protein band on the same gel.

Another assay deals with calpain. Nature of the assay: MCAO: spectrin BD level (calpain activation) in brain tissues. In kind it is in vivo, mouse. Particulars: MCAO WT mice; gabapentin posttreatment; peptide 200 μg/kg i.p. twice. An excerpt:
α2δ-1 and α2δ-1-bound NMDARs contribute to MCAO-induced calpain activation in brain tissues: Cerebral ischemia increases calpain activity, and calpain inhibition is neuroprotective against ischemia-induced brain injury. Spectrin is highly sensitive to proteolysis by calpain, and the stable αIIspectrin breakdown product (spectrin BD, 150 kDa) is commonly used as a biochemical assay for calpain activation.

The subject of a further assay is SHRs. Briefly: PVN microinjection and recording of ABP and RSNA in SHRs. In kind it is in vivo, rat. Particulars: 50 pmol. How it is done: PVN microinjection and recording of renal sympathetic nerve activity: Rats were anaesthetized via i.p. administration of a mixture of α-chloralose (60 mg kg-1) and urethane (800 mg kg-1) and mechanically ventilated with trachea cannulation. The arterial blood pressure (ABP) was monitored via a catheter placed in the left femoral artery, and heart rate (HR) was extracted from the pulsatile pressure wave. A retroperitoneal incision was made, and a branch of the left renal postganglionic sympathetic nerve was isolated under a surgical microscope. The renal sympathetic nerve was cut distally to ensure that afferent activity was not recorded. The ABP, HR and renal sympathetic nerve activity (RSNA) were recorded using a 1401-PLUS analogue-to-digital converter and Spike2 system (Cambridge Electronic Design, Cambridge, UK). After the brain was exposed, a microinjection pipette (tip diameter 20-30 μm) was advanced into the PVN in accordance with the stereotactic co-ordinates: 1.6-2.0 mm caudal to the bregma, 0.5 mm lateral to the midline and 7.0-7.5 mm ventral to the dura. The microinjection was performed using a Nanoject II (Drummond Scientific Company) and monitored using a surgical microscope as described previously (Li & Pan, 2006, 2007; Qiao et al. 2017). […] At the end of each experiment, the electrical background noise was measured after the proximal end of renal nerve was crushed at the end of each experiment. To determine the location of the injection site and diffusion of the drugs in the PVN, 5% rhodamine-labelled fluorescent microspheres (0.04 μm; Molecular Probes) were included in the injection solution. Rats were excluded from the data analysis if the microinjections were misplaced outside the PVN.

The mark [2] stands for this setting: Ang II 2 μmol/L for 60 min vs vehicle.
Setting [3] is: peptide 1 μmol/L for 30 min, vs control peptide.

T1 sequence (Q00959 20-1464 limits assumed, other chains not shown): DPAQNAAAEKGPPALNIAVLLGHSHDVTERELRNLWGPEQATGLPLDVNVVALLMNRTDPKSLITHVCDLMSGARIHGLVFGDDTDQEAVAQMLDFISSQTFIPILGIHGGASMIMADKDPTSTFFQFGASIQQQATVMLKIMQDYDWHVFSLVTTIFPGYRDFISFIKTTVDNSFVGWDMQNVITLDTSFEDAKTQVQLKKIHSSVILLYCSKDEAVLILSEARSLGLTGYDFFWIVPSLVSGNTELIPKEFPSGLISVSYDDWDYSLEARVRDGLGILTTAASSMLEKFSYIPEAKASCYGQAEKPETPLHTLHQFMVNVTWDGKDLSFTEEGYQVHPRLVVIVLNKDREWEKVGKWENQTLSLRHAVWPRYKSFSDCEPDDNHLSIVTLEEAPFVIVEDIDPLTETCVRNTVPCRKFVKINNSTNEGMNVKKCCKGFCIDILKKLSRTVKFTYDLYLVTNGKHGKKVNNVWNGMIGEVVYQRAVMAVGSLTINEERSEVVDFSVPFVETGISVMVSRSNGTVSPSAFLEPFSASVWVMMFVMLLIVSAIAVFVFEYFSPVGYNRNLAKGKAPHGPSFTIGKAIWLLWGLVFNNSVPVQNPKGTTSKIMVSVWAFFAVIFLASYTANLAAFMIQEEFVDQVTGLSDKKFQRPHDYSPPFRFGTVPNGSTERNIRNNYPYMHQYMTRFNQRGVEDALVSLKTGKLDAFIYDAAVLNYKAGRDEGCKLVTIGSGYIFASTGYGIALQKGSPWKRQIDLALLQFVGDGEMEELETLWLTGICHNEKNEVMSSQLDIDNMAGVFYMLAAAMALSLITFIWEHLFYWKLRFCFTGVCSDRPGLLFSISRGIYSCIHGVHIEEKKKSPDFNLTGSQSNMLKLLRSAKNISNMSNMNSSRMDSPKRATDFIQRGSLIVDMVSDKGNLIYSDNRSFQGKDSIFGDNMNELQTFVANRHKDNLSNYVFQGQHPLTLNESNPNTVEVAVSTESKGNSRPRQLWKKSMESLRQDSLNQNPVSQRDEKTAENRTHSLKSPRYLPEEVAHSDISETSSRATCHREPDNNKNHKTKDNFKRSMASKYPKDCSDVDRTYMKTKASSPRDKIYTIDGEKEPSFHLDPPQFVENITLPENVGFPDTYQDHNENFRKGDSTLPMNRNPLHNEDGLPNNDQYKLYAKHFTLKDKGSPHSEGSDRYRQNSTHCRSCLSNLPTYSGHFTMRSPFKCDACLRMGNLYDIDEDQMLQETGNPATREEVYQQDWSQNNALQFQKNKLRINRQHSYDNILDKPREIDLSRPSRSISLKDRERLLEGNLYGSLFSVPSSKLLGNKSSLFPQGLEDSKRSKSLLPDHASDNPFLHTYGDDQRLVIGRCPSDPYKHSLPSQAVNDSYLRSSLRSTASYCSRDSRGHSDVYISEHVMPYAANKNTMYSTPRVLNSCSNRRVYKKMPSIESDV
T1 sequence (Q00960 27-1482, other chains not shown): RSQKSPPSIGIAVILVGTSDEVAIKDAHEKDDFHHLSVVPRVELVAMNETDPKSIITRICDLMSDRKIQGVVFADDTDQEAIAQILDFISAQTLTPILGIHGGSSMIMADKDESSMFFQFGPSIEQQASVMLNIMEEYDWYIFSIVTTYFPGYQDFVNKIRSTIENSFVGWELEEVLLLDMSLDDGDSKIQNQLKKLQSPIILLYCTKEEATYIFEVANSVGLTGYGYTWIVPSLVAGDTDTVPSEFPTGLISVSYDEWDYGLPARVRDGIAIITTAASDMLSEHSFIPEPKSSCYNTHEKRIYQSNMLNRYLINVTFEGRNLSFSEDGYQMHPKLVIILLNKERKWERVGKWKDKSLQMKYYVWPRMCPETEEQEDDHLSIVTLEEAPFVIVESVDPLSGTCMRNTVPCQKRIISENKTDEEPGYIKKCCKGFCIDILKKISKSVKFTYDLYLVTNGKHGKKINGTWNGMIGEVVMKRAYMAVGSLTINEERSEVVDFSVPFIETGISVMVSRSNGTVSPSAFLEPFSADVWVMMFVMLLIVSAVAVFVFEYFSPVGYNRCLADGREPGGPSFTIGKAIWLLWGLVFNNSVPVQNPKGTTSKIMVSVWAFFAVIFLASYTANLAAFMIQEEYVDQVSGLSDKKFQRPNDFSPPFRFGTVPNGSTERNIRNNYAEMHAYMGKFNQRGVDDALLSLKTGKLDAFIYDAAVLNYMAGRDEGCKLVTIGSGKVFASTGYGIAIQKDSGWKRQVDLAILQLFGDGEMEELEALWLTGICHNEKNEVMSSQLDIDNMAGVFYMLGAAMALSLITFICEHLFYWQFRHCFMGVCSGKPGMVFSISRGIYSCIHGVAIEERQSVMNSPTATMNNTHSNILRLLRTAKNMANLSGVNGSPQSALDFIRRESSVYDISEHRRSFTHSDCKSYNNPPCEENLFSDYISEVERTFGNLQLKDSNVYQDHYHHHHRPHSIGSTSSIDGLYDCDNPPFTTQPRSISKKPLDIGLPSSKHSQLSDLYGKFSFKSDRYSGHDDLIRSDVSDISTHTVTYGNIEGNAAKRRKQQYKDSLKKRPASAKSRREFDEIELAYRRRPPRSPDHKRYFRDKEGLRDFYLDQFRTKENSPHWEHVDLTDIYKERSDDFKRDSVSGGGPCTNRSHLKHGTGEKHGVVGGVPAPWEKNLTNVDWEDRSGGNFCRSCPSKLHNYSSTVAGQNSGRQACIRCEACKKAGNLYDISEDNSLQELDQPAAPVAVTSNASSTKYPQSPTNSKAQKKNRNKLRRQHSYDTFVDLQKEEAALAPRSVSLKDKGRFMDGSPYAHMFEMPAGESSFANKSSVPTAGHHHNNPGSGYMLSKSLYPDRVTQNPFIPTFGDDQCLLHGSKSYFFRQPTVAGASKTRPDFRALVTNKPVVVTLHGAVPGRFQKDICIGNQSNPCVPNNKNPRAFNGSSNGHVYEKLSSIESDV

“Ang II: angiotensin II, obtained from Sigma (DRVYIHPF; Angiotensin-2; UniProt P01019 25-32, looked up)”: in assay [1] (setting [2]), the “protein level of GluN1 in hypothalamic synaptosomes” value is “significantly increased” and the “protein level of α2δ-1 in hypothalamic synaptosomes” value is listed as “significantly increased”.
In the case of `NCC1(CC(=O)O)CCCCC1` [gabapentin], the “spectrin BD level in cortex, hippocampus and striatum” value with calpain is given as “significantly reduced”.
For the molecule “YGRKKRRQRRRVSGLNPSLWSIFGLQFILLWLVSGSRHYLW (a2d1 peptide) [α2δ-1Tat peptide, 30-amino-acid peptide mimicking the C-terminal domain of α2δ-1 fused to the cell-penetrating peptide Tat]”, in the assay on calpain, the “spectrin BD level in cortex, hippocampus and striatum” value is given as “significantly reduced”. Moreover, in assay [1] (setting [3]), the “effect of Ang II on the protein level of GluN1” value is given as “significantly attenuated” and the “effect of Ang II on the protein level of α2δ-1” value is recorded as “significantly attenuated”. In addition, the “ABP and RSNA” value in the assay with SHRs (50 nL bilaterally into the PVN) is recorded as “significantly decreased”. In addition, in the assay on SHRs (50 nL into the PVN), the “duration of the effect on the mean ABP and RSNA” value is “more than 60 min”.
